The values that follow come from patent US10801046B2, “Methods and materials for biosynthesizing multifunctional, multivariate molecules via carbon chain modification” (INVISTA NORTH AMERICA S.A.R.L., priority 2016, dated 2020).

The labels stand for the following.
B1: SEQ ID NO: 91: Cryptobacterium curtum thioesterase (protein)
chain: MTISASLFLEKDYRLRTGDFDRYRRLHPTAVLDLFQDIGGLQAEMMGIGYDAMAAQDVFWAVVRTAYQVEHTPAEHEVVKVSTWPHSPSRYSFQRDYALRSTDGSLLVRGTSEWVLMDMNTRSLTSVLDYYHGSLDFIDERMFAKKLRKIRDFTEEGSGLSITPRYSDVDQNGHVNNARYASFVLDALDPSAAGSIASFQIDFRHEVIEGTPLVVFTQVEGKDIQAKGLDSNGEIKFACKITAQA
modifications: Cryptobacterium curtum (strain ATCC 700683 / DSM 15641 / 12-3)
notes: Cryptobacterium curtum thioesterase
B2: SEQ ID NO: 88: Clostridium sulfidigenes thioesterase (protein)
chain: MELNYKEQFTIKFHEGDFMGNVKLFTIMDYVQQVSEGHSQILGVDFQSMMNKGLFWVVSRVEITMERYPKVGEDITVETCLGGREKVFMKRRFKIKDKDGQVIGRVLIYYLIVDIETRLPQKPSMCPVDININVGDVIDNKLNKIKMPGEAIETVNRKLYYNDIDINNHVNNAKYISFIEDFFSLDWHRVKKISYMQLNFIKEIKFDDSLIMNKFIEDKESNSFCINGISEISEQEFFQCRLKF
modifications: Clostridium sulfidigenes
notes: Clostridium sulfidigenes thioesterase
B3: SEQ ID NO: 27: Mycobacterium smegmatis fatty-acid-CoA ligase with carboxylate reductase activity (protein)
chain: MTIETREDRFNRRIDHLFETDPQFAAARPDEAISAAAADPELRLPAAVKQILAGYADRPALGKRAVEFVTDEEGRTTAKLLPRFDTITYRQLAGRIQAVTNAWHNHPVNAGDRVAILGFTSVDYTTIDIALLELGAVSVPLQTSAPVAQLQPIVAETEPKVIASSVDFLADAVALVESGPAPSRLVVFDYSHEVDDQREAFEAAKGKLAGTGVVVETITDALDRGRSLADAPLYVPDEADPLTLLIYTSGSTGTPKGAMYPESKTATMWQAGSKARWDETLGVMPSITLNFMPMSHVMGRGILCSTLASGGTAYFAARSDLSTFLEDLALVRPTQLNFVPRIWDMLFQEYQSRLDNRRAEGSEDRAEAAVLEEVRTQLLGGRFVSALTGSAPISAEMKSWVEDLLDMHLLEGYGSTEAGAVFIDGQIQRPPVIDYKLVDVPDLGYFATDRPYPRGELLVKSEQMFPGYYKRPEITAEMFDEDGYYRTGDIVAELGPDHLEYLDRRNNVLKLSQGEFVTVSKLEAVFGDSPLVRQIYVYGNSARSYLLAVVVPTEEALSRWDGDELKSRISDSLQDAARAAGLQSYEIPRDFLVETTPFTLENGLLTGIRKLARPKLKAHYGERLEQLYTDLAEGQANELRELRRNGADRPVVETVSRAAVALLGASVTDLRSDAHFTDLGGDSLSALSFSNLLHEIFDVDVPVGVIVSPATDLAGVAAYIEGELRGSKRPTYASVHGRDATEVRARDLALGKFIDAKTLSAAPGLPRSGTEIRTVLLTGATGFLGRYLALEWLERMDLVDGKVICLVRARSDDEARARLDATFDTGDATLLEHYRALAADHLEVIAGDKGEADLGLDHDTWQRLADTVDLIVDPAALVNHVLPYSQMFGPNALGTAELIRIALTTTIKPYVYVSTIGVGQGISPEAFVEDADIREISATRRVDDSYANGYGNSKWAGEVLLREAHDWCGLPVSVFRCDMILADTTYSGQLNLPDMFTRLMLSLVATGIAPGSFYELDADGNRQRAHYDGLPVEFIAEAISTIGSQVTDGFETFHVMNPYDDGIGLDEYVDWLIEAGYPVHRVDDYATWLSRFETALRALPERQRQASLLPLLHNYQQPSPPVCGAMAPTDRFRAAVQDAKIGPDKDIPHVTADVIVKYISNLQMLGLL
modifications: Mycobacterium smegmatis (strain ATCC 700084 / mc(2)155)
B4: SEQ ID NO: 25: Mycobacterium marinum carboxylate reductase (protein)
chain: MSPITREERLERRIQDLYANDPQFAAAKPATAITAAIERPGLPLPQIIETVMTGYADRPALAQRSVEFVTDAGTGHTTLRLLPHFETISYGELWDRISALADVLSTEQTVKPGDRVCLLGFNSVDYATIDMTLARLGAVAVPLQTSAAITQLQPIVAETQPTMIAASVDALADATELALSGQTATRVLVFDHHRQVDAHRAAVESARERLAGSAVVETLAEAIARGDVPRGASAGSAPGTDVSDDSLALLIYTSGSTGAPKGAMYPRRNVATFWRKRTWFEGGYEPSITLNFMPMSHVMGRQILYGTLCNGGTAYFVAKSDLSTLFEDLALVRPTELTFVPRVWDMVFDEFQSEVDRRLVDGADRVALEAQVKAEIRNDVLGGRYTSALTGSAPISDEMKAWVEELLDMHLVEGYGSTEAGMILIDGAIRRPAVLDYKLVDVPDLGYFLTDRPHPRGELLVKTDSLFPGYYQRAEVTADVFDADGFYRTGDIMAEVGPEQFVYLDRRNNVLKLSQGEFVTVSKLEAVFGDSPLVRQIYIYGNSARAYLLAVIVPTQEALDAVPVEELKARLGDSLQEVAKAAGLQSYEIPRDFIIETTPWTLENGLLTGIRKLARPQLKKHYGELLEQIYTDLAHGQADELRSLRQSGADAPVLVTVCRAAAALLGGSASDVQPDAHFTDLGGDSLSALSFTNLLHEIFDIEVPVGVIVSPANDLQALADYVEAARKPGSSRPTFASVHGASNGQVTEVHAGDLSLDKFIDAATLAEAPRLPAANTQVRTVLLTGATGFLGRYLALEWLERMDLVDGKLICLVRAKSDTEARARLDKTFDSGDPELLAHYRALAGDHLEVLAGDKGEADLGLDRQTWQRLADTVDLIVDPAALVNHVLPYSQLFGPNALGTAELLRLALTSKIKPYSYTSTIGVADQIPPSAFTEDADIRVISATRAVDDSYANGYSNSKWAGEVLLREAHDLCGLPVAVFRCDMILADTTWAGQLNVPDMFTRMILSLAATGIAPGSFYELAADGARQRAHYDGLPVEFIAEAISTLGAQSQDGFHTYHVMNPYDDGIGLDEFVDWLNESGCPIQRIADYGDWLQRFETALRALPDRQRHSSLLPLLHNYRQPERPVRGSIAPTDRFRAAVQEAKIGPDKDIPHVGAPIIVKYVSDLRLLGLL
modifications: Mycobacterium marinum (strain ATCC BAA-535 / M)
notes: Mycobacterium marinum carboxylate reductase
B5: SEQ ID NO: 184: [Clostridium] ultunense Esp thioesterase (protein)
chain: MKATPLYIKDYKVEINHVDFKGDLKLSSLFTYCQDIAGLHAENLGMGREVLYTQHRVIWVLVRVRVDIIKYPKWKDILTLETWPQEPSRMGFDRDFLIKDKKGNILAKAVSTWVVIDVESRKLVRTKSVYTGYPLVVEKRAIDCKLGNLKSSGELETAYERTVRYSDIDVNEHLNNAKYLDFIMDSFSFEEHRRFNVKSVEISYSNEALLGETIKIYEDRSRIDSNIIYMEGIREGKDLVFKSQIEIEEK
modifications: Clostridium ultunense Esp
notes: [Clostridium] ultunense Esp thioesterase
B6: SEQ ID NO: 187: Eggerthella sp. CAG:1427 thioesterase (protein)
chain: MTIGYEQTYQLRTGDFDRYAHLLPSSILDVFQDVAGVNAEQVPGMTWKELTDAGLFWVVTRIKYEVIETPHLHEQVIARTWPLAPTRLGFQREYTMRKLDGTPLVKCSSDWILMDYKTRSFASARDFYNGPQDFSEEKVFEKKLRKIKTFEPEDTGETFQVHFVDIDINGHVNNSKYPNFVMNSLDLGEDETIKTFQIDYRHELRAGSTVRIHSKRDGNVITSMGISTEGDTAGECMFATQIELA
modifications: Eggerthella sp. CAG:1427
notes: Eggerthella sp; CAG:1427 thioesterase
B7: SEQ ID NO: 185: Granulicatella elegans ATCC 700633 thioesterase (protein)
chain: MTVDVICQIERTILPYECDWKENLLLSQALGMMMLASRKQQQQLQNPNLIYEKGYTWIVIQHEIEIQRMPKVDEEVIIETQAISYNKFFTYREYRILSKEREELFKCITTFAMLDMKARKIVSIDEEVVLEYPLSIGKEMRKATRIPKKDFSDATTGEYKIRINDIDANLHVNNARYFDFAFSELGMEFIEDHQLKQVVIKYEKEVLPESTISCSTLWEENTLESQERRQTYHLISQDGNRCANIQMKWEEIV
modifications: Granulicatella elegans ATCC 700633
notes: Granulicatella elegans ATCC 700633 thioesterase
B8: SEQ ID NO: 183: Clostridium sp. CAG: 798 thioesterase (protein)
chain: MAIIENKYHIGIKYVDKDRLLSLRGIILLFEDIACRHSDMVGYGINDVTKTHFSWVLLNWKIKVLSRINYGSIVTVKTWSRETSKLYTYRDFEIYDENNNLICIASSKWVLLSTETGHIIHITEEIKNAYLAENKTVFNESDLHKIVEPDNAEKTFSFTVRRRDIDINNHMNNLYYLDYALEALPEEVYSKFFNNVEIMYKYSAKLGETINCFYKEEEDGYYVMMKSATDNILHALVKLY
modifications: Clostridium sp. CAG:798
notes: Clostridium sp; CAG: 798 thioesterase

The first experiment deals with heptanedioyl-ACP methyl ester. The experiment can be described thus: Cell lysate in vitro thioesterase screen (DTNB, absorbance at 410 nm) on heptanedioyl-ACP methyl ester. The format is biochemical. The following applies: 0.33 mM acyl-ACP substrate, 30° C., 30 min.
For the molecule B1, the “activity toward heptanedioyl-ACP methyl ester (hydrolysis)” value is “notable for their activity toward heptanedioyl-ACP methyl ester”.

On to B2, for which the “activity toward heptanedioyl-ACP methyl ester (hydrolysis)” value was “notable for their activity toward heptanedioyl-ACP methyl ester”.

Tested on in another experiment: not listed separately
The experiment can be described thus: Carboxylate reductase activity, 7-hydroxyheptanoate to 7-hydroxyheptanal, NADPH consumption at 340 nm. Type of experiment: biochemical. The following applies: enhanced by gene product of sfp, 20 min, against empty vector control, FIG. 44. Here is the method:
A sequence encoding a His-tag was added to the genes from Mycobacterium marinum, Mycobacterium smegmatis, Segniliparus rugosus, Mycobacterium smegmatis, Mycobacterium massiliense, and Segniliparus rotundus that encode the carboxylate reductases of SEQ ID NOs: 25 (GenBank Accession No. ACC40567.1), 27 (GenBank Accession No. ABK75684.1), 29 (GenBank Accession No. ABK71854.1), 31 (GenBank Accession No. EFV11917.1), 37 (GenBank Accession No. EIV11143.1), and 38 (GenBank Accession No. ADG98140.1) such that N-terminal HIS tagged carboxylate reductases could be produced. Each of the modified genes was cloned into a pET Duet expression vector alongside a sfp gene encoding a His-tagged phosphopantetheine transferase from Bacillus subtilis, both under control of the T7 promoter.
Each expression vector was transformed into a BL21[DE3] E. coli host and the resulting recombinant E. coli strains were cultivated at 37° C. in a 250 mL shake flask culture containing 50 mL LB media and antibiotic selection pressure, with shaking at 230 rpm. Each culture was induced overnight at 37° C. using an auto-induction media.
The pellet from each induced shake flask culture was harvested via centrifugation. Each pellet was resuspended and lysed via sonication. The cell debris was separated from the supernatant via centrifugation. The carboxylate reductases and phosphopantetheine transferase were purified from the supernatant using Ni-affinity chromatography, diluted 10-fold into 50 mM HEPES buffer (pH=7.5) and concentrated via ultrafiltration.
Enzyme activity (i.e., 7-hydroxyheptanoate to 7-hydroxyheptanal) assays were performed in triplicate in a buffer composed of a final concentration of 50 mM HEPES buffer (pH=7.5), 2 mM […], 10 mM MgCl2, 1 mM ATP, and 1 mM NADPH. Each enzyme activity assay reaction was initiated by adding purified carboxylate reductase and phosphopantetheine transferase or the empty vector control to the assay buffer containing the 7-hydroxyheptanoate and then incubated at room temperature for 20 min. The consumption of NADPH was monitored by absorbance at 340 nm.
Regarding B3, the “acceptance of 7-hydroxyheptanoate as substrate, forming 7-hydroxyheptanal” value is reported as “accepted 7-hydroxyheptanoate as substrate”.

With B4, the “acceptance of 7-hydroxyheptanoate as substrate, forming 7-hydroxyheptanal” value is on record as “accepted 7-hydroxyheptanoate as substrate”.

Another experiment concerns heptanedioyl-ACP. The experiment can be described thus: Cell lysate in vitro thioesterase screen (DTNB, absorbance at 410 nm) on heptanedioyl-ACP. The format is biochemical. As to conditions: 0.33 mM acyl-ACP substrate, 30° C., 30 min.
For B5, the “activity toward heptanedioyl-ACP (hydrolysis)” value is on record as “notable for their activity toward heptanedioyl-ACP”.

As for B6, the “activity toward heptanedioyl-ACP (hydrolysis)” value was “notable for their activity toward heptanedioyl-ACP”.

In the case of B1, the “activity toward heptanedioyl-ACP (hydrolysis)” value is “notable for their activity toward heptanedioyl-ACP”.

For the molecule B2, the “activity toward heptanedioyl-ACP (hydrolysis)” value is given as “notable for their activity toward heptanedioyl-ACP”.

Consider B7, for which the “activity toward heptanedioyl-ACP (hydrolysis)” value is “notable for their activity toward heptanedioyl-ACP”.

Regarding B8, the “activity toward heptanedioyl-ACP (hydrolysis)” value was “notable for their activity toward heptanedioyl-ACP”.
